Source: patent publication US20220096654A1, “PYRROLOBENZODIAZEPINE-ANTIBODY CONJUGATES AND USES THEREOF” (ADC THERAPEUTICS SA, priority 2020, published 2022)

What was measured:
Nalm6 (CD45-) = test: Cell viability assay 5 days (PrestoBlue), Nalm6; assay type: cell-based, human; settings: rat IgG2b ADC, n=3
Experimental: (§1) OCIM1, Jurkat and Nalm6 cells were seeded at a final concentration of 1.275×10^4/mL and for 5 days in presence of rat IgG2b Mab or ADC or medium (in triplicate) in wells of flat bottom 96-well plates. 293T cells were seeded at 9.3×10^3 cells per 100 uL per well in flat bottom 96-well plates and allowed to adhere the plate for up to 24 hours. 293T cells were subsequently cultured with rat IgG2b Mabs or ADC or medium (in triplicate wells) as described above. PrestoBlue® Cell viability Reagent (Thermo Fisher Scientific) was added to each and incubated for up to 1.5 hours. Fluorescence intensity from each well was detected using a FLUOstar OPTIMA microplate reader (BMG Labtech). Data was plotted using Prism 8.0 and sigmoid dose-response non-linear regression was used to determine EC50 values. Data points are mean±s.d. for representative experiments.

293T (CD45-) = test: Cell viability assay 5 days (PrestoBlue), 293T; assay type: cell-based, human; settings: rat IgG2b ADC, n=3
Experimental: as §1

fLuc+ OCIM1 cells [1] = test: AML model in NSG mice, treatment the day after cell injection; assay type: in vivo; settings: for tumor (bioluminescence) signal: 1 mg/kg or 5 mg/kg i.v. the day after OCIM1 injection
Experimental: (§2) NSG mice were transplanted with 7.5×10^6 luciferase expressing fLuc+ OCIM1 cells i.v. On the following day, unconjugated rat IgG2b antibodies or ADCs were injected i.v. via a tail vein at a dose of 1 mg/kg or 5 mg/kg. Mice were regularly monitored for signs of morbidity for the duration of the experiment. For imaging, mice were injected intraperitoneally with 200 μl of 15 mg/mL D-luciferin (Regis Technologies) in PBS. Mice were subsequently anesthetized with 4% isoflurane and maintained at 2% isoflurane. Ten minutes after injection of D-luciferin, mice were placed with anterior side up inside a IVIS Lumina III (PerkinElmer). A sub-saturating image was captured using the auto-exposure setting in the Living Image software (v4.5). Quantification and preparation of images was also carried out using the same software.

fLuc+ OCIM1 cells [2] = test: Established AML model in NSG mice, treatment 10 days post-injection; assay type: in vivo; settings: for mice alive at 60 days: cohorts of 5 mice, all tumor-bearing
Experimental: as §2, with “7.5×10^6” for “7.5×10^6 luciferase expressing”, “At 10 days post-injection of AML cells,” for “On the following day,”, “antibody” for “rat IgG2b antibodies”

human CD45+ cells = test: Allogeneic stem cell transplant model in humanized NSG mice, comparison of payloads; assay type: in vivo; settings: for mean % hCD45+ engraftment in the bone marrow: 8 weeks after allogeneic GFP+ cells, PBS 14.12%
Experimental: Adult NSG mice (Charles River Laboratories) were sublethally irradiated with 2.5 Gy in a ^137Cs irradiator. On the following day, mice were injected with 0.5×10^6 freshly thawed cryopreserved human CD34+ cells from a health donor were injected via the tail vein in 150 μL PBS using a 29 gauge MicroFine Plus insulin syringe (BD). Engraftment of human cells in the blood was assessed periodically from 6 weeks after transplantation. At 10 weeks post-transplant, humanized NSG mice were assigned into cohorts with similar median human CD45+ cell engraftment in the blood, as determined by flow cytometry. Mice were injected with PBS or 1 mg/kg YTH24.5-B1. Sixteen 16 days after treatment, mice were transplanted with 0.5×10^6 GFP+CD34+ cells from another healthy donor. Irradiated NSG […] were also transplanted with the GFP+CD34+ from the allogeneic healthy donor as a control for engraftment of the GFP+CD34+ cells. 8 weeks after transplantation of GFP+ cells, mice were culled and blood, spleen and bone marrow taken for analysis by flow cytometry.
Experimental schedule is as previously described in example 16 but with the following modifications. Humanized NSG mice at 10 weeks post-transplant were injected with PBS or 1 mg/kg YTH24.5-B1, YTH54.12-B1, Isotype-B1, YTH24.5-B4 and Isotype-3376. Isotype-B2 and YTH24.5-B2 was given at a dose of 5 mg/kg. Transplantation of 0.5×10^6 GFP+CD34+ from an allogeneic human donor and analysis at 8 weeks post-transplant of GFP+ cells was carried out as previously described.

Molecule	EC50 (Nalm6 (CD45-))	EC50 (293T (CD45-))	tumor (bioluminescence) signal (fLuc+ OCIM1 cells [1])	period of tumor regression / low tumor signal (fLuc+ OCIM1 cells [2])	percentage GFP+ human CD34+ cells in the bone marrow (mean) (human CD45+ cells; 1 mg/kg)	mean % hCD45+ engraftment in the bone marrow (human CD45+ cells; 1 mg/kg)	time within which tumor signal increased again (fLuc+ OCIM1 cells [2])	mice alive at 60 days (fLuc+ OCIM1 cells [2])	percentage GFP+ human CD34+ cells in the bone marrow (mean) (human CD45+ cells; 5 mg/kg)	mean % hCD45+ engraftment in the bone marrow (human CD45+ cells; 5 mg/kg)	mice developing tumor / tumor signal (fLuc+ OCIM1 cells [1]; 1 mg/kg or 5 mg/kg i.v., cohorts of 5 mice)
YTH24.5-B4: rat IgG2b anti-CD45 antibody YTH24.5 conjugated to non-cleavable PBD drug-linker B4 (drawing 46) (conjugate) heavy: QVNLLQSGAALVKPGASVKLSCKASSYTFTDYYIHWVKQSHGKTLEWIGYINPKSGFTNYNEKFRRKATLTVDKSTNTAYMDISRLTSEDSATYYCTRRTGVIPMDAWGQGASVTVSSAQTTAPSVYPLAPGCGDTTSSTVTLGCLVKGYFPEPVTVTWNSGALSSDVHTFPAVLQSGLYTLTSSVTSSTWPSQTVTCNVAHPASSTKVDKKVERRNGGIGHKCPTCPTCHKCPVPELLGGPSVFIFPPKPKDILLISQNAKVTCVVVDVSEEEPDVQFSWFVNNVEVHTAQTQPREEQYNSTFRVVSALPIQHQDWMSGKEFKCKVNNKALPSPIEKTISKPKGLVRKPQVYVMGPPTEQLTEQTVSLTCLTSGFLPNDIGVEWTSNGHIEKNYKNTEPVMDSDGSFFMYSKLNVERSRWDSRAPFVCSVVHEGLHNHHVEKSISRPPGK light: DVVMTQTPVSLSVSLGGQVSISCRSSQSFVSSDGNTYLNWYLQKPGQSPQLLIYKVSNRLSGVPDRFSGSGSGTDFTLKISRVEHDDLGVYYCGQASKIPLTFGSGTKLEIKRADAAPTVSIFPPSMEQLTSGGATVVCFVNNFYPRDISVKWKIDGSEQRDGVLDSVTDQDSKDSTYSMSSTLSLTKVEYERHNLYTCEVVHKTSSSPVVKSFNRNEC	0.162 nM	> 6 nM	Low/absent tumor signal	marginally longer period of low tumor signal than YTH24.5-B1	57.95%	7.34%	–	–	–	–	–
YTH24.5-B2: rat IgG2b anti-CD45 antibody YTH24.5 conjugated to PBD drug-linker B2 (drawing 44) (conjugate) heavy: QVNLLQSGAALVKPGASVKLSCKASSYTFTDYYIHWVKQSHGKTLEWIGYINPKSGFTNYNEKFRRKATLTVDKSTNTAYMDISRLTSEDSATYYCTRRTGVIPMDAWGQGASVTVSSAQTTAPSVYPLAPGCGDTTSSTVTLGCLVKGYFPEPVTVTWNSGALSSDVHTFPAVLQSGLYTLTSSVTSSTWPSQTVTCNVAHPASSTKVDKKVERRNGGIGHKCPTCPTCHKCPVPELLGGPSVFIFPPKPKDILLISQNAKVTCVVVDVSEEEPDVQFSWFVNNVEVHTAQTQPREEQYNSTFRVVSALPIQHQDWMSGKEFKCKVNNKALPSPIEKTISKPKGLVRKPQVYVMGPPTEQLTEQTVSLTCLTSGFLPNDIGVEWTSNGHIEKNYKNTEPVMDSDGSFFMYSKLNVERSRWDSRAPFVCSVVHEGLHNHHVEKSISRPPGK light: DVVMTQTPVSLSVSLGGQVSISCRSSQSFVSSDGNTYLNWYLQKPGQSPQLLIYKVSNRLSGVPDRFSGSGSGTDFTLKISRVEHDDLGVYYCGQASKIPLTFGSGTKLEIKRADAAPTVSIFPPSMEQLTSGGATVVCFVNNFYPRDISVKWKIDGSEQRDGVLDSVTDQDSKDSTYSMSSTLSLTKVEYERHNLYTCEVVHKTSSSPVVKSFNRNEC	0.0301 nM	> 6 nM	Low/absent tumor signal	shortest period of tumor regression	–	–	≤ 10 days	1/5	72.14%	1.089%	–
YTH24.5-B7: rat IgG2b anti-CD45 antibody YTH24.5 conjugated to PBD drug-linker B7 (drawing 49) (conjugate) heavy: QVNLLQSGAALVKPGASVKLSCKASSYTFTDYYIHWVKQSHGKTLEWIGYINPKSGFTNYNEKFRRKATLTVDKSTNTAYMDISRLTSEDSATYYCTRRTGVIPMDAWGQGASVTVSSAQTTAPSVYPLAPGCGDTTSSTVTLGCLVKGYFPEPVTVTWNSGALSSDVHTFPAVLQSGLYTLTSSVTSSTWPSQTVTCNVAHPASSTKVDKKVERRNGGIGHKCPTCPTCHKCPVPELLGGPSVFIFPPKPKDILLISQNAKVTCVVVDVSEEEPDVQFSWFVNNVEVHTAQTQPREEQYNSTFRVVSALPIQHQDWMSGKEFKCKVNNKALPSPIEKTISKPKGLVRKPQVYVMGPPTEQLTEQTVSLTCLTSGFLPNDIGVEWTSNGHIEKNYKNTEPVMDSDGSFFMYSKLNVERSRWDSRAPFVCSVVHEGLHNHHVEKSISRPPGK light: DVVMTQTPVSLSVSLGGQVSISCRSSQSFVSSDGNTYLNWYLQKPGQSPQLLIYKVSNRLSGVPDRFSGSGSGTDFTLKISRVEHDDLGVYYCGQASKIPLTFGSGTKLEIKRADAAPTVSIFPPSMEQLTSGGATVVCFVNNFYPRDISVKWKIDGSEQRDGVLDSVTDQDSKDSTYSMSSTLSLTKVEYERHNLYTCEVVHKTSSSPVVKSFNRNEC	0.905 nM	> 6 nM	Increasing tumor signal in three mice	–	–	–	–	–	–	–	3/5
YTH54.12-B4: rat IgG2b anti-CD45 antibody YTH54.12 conjugated to non-cleavable PBD drug-linker B4 (drawing 46) (conjugate) heavy: EVQLVESGGGLVQPGGSMKLSCAASGFTFSDYYMAWVRQAPKKGLEWVASMSFAGSSTYYGDSVKGRFTISRDNAKTTLYLQMNSLRSEDTATYYCARMYTTDYYLYWYFDFWGPGTMVTVSSAQTTAPSVYPLAPGCGDTTSSTVTLGCLVKGYFPEPVTVTWNSGALSSDVHTFPAVLQSGLYTLTSSVTSSTWPSQTVTCNVAHPASSTKVDKKVERRNGGIGHKCPTCPTCHKCPVPELLGGPSVFIFPPKPKDILLISQNAKVTCVVVDVSEEEPDVQFSWFVNNVEVHTAQTQPREEQYNSTFRVVSALPIQHQDWMSGKEFKCKVNNKALPSPIEKTISKPKGLVRKPQVYVMGPPTEQLTEQTVSLTCLTSGFLPNDIGVEWTSNGHIEKNYKNTEPVMDSDGSFFMYSKLNVERSRWDSRAPFVCSVVHEGLHNHHVEKSISRPPGK light: DVQMTQSPSYLAASPGESVSISCKASKSISNYLAWYQQKPGEANKILIYSGSTLQSGTPSRFSGSGSGTDFSLTIRNLEPEDFAVYYCQQYDEKPLTFGSGTKLEIKRADAAPTVSIFPPSMEQLTSGGATVVCFVNNFYPRDISVKWKIDGSEQRDGVLDSVTDQDSKDSTYSMSSTLSLTKVEYERHNLYTCEVVHKTSSSPVVKSFNRNEC	0.715 nM	> 6 nM	–	–	–	–	–	4/5	–	–	–
